Experimental data taken from patent publication US20180148504A1 (EISAI R AND D MANAGEMENT, published 2018).

Columns and labels:
[1] = target: T1, recombinant purified FRα (ECL assay calibrator) (human, UniProt P15328 25-234); experiment: ECL sandwich, FRα calibrator; capture 6A2.G7; binder = detection Ab
T1 construct: Calibrator of the ECL sandwich assays; also called FRα calibrator; FRα standard

[2] = target: T1, recombinant purified FRα (ECL assay …); experiment: ECL sandwich on FRα, signal to background; capture 5C12.H8; binder = detection Ab
[3] = target: T1, recombinant purified FRα (ECL assay …); experiment: ECL sandwich, FRα calibrator; capture 1A8.G11.E7; binder = detection Ab
[4] = target: T1, recombinant purified FRα (ECL assay …); experiment: ECL sandwich on FRα, signal to background; capture 2F11.F8; binder = detection Ab
[5] = target: T1, recombinant purified FRα (ECL assay …); experiment: ECL sandwich on FRα, signal to background; capture 30G6.G6.G4.E9; binder = detection Ab
[6] = target: T1, recombinant purified FRα (ECL assay …); experiment: ECL sandwich on FRα, signal to background; capture 1C6.E12.G8; binder = detection Ab
[7] = target: T1, recombinant purified FRα (ECL assay …); experiment: ECL sandwich, FRα calibrator; capture 26A9.C4; binder = detection Ab
[8] = target: T1, recombinant purified FRα (ECL assay …); experiment: ECL sandwich, FRα calibrator; capture 2F11.F8; binder = detection Ab
[9] = target: T1, recombinant purified FRα (ECL assay …); experiment: ECL sandwich on FRα, signal to background; capture 1A8.G11.E7; binder = detection Ab
[10] = target: T1, recombinant purified FRα (ECL assay …); experiment: ECL sandwich, FRα calibrator; capture 19D2.G9; binder = detection Ab
[11] = target: T1, recombinant purified FRα (ECL assay …); experiment: ECL sandwich on FRα, signal to background; capture 6A2.G7; binder = detection Ab
[12] = target: T1, recombinant purified FRα (ECL assay …); experiment: ECL sandwich on FRα, signal to background; capture 24H8.D3; binder = detection Ab
[13] = target: T1, recombinant purified FRα (ECL assay …); experiment: ECL sandwich, FRα calibrator; capture 28H12.G9; binder = detection Ab
[14] = target: T1, recombinant purified FRα (ECL assay …); experiment: ECL sandwich, FRα calibrator; capture 5C12.H8; binder = detection Ab
[15] = target: T1, recombinant purified FRα (ECL assay …); experiment: ECL sandwich, FRα calibrator; capture 1D2.G8.G10; binder = detection Ab
[16] = target: T1, recombinant purified FRα (ECL assay …); experiment: ECL sandwich, FRα calibrator; capture 24H8.D3; binder = detection Ab
[17] = target: T1, recombinant purified FRα (ECL assay …); experiment: ECL sandwich on FRα, signal to background; capture 26A9.C4; binder = detection Ab
[18] = target: T1, recombinant purified FRα (ECL assay …); experiment: ECL sandwich, FRα calibrator; capture 19D4.B7; binder = detection Ab
[19] = target: T1, recombinant purified FRα (ECL assay …); experiment: ECL sandwich on FRα, signal to background; capture 19D2.G9; binder = detection Ab
[20] = target: T2, human folate receptor gamma (FRγ), recombinant, C-terminal 6xHis (human, UniProt P41439 23-245, limits assumed); experiment: direct ELISA, plates coated with 1 µg/mL FR isoform, dilution series of culture supernatant
T2 construct: Transiently expressed in 293F cells and purified; coated on ELISA plates
T2 sequence (P41439 other isoform, or with tags, fused parts or gaps limits assumed): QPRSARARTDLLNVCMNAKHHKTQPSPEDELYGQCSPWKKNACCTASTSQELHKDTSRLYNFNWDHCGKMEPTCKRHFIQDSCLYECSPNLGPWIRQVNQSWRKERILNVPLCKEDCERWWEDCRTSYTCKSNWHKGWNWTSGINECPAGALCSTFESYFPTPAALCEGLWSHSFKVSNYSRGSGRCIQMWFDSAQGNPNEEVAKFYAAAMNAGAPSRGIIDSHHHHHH

[21] = target: T3, human folate receptor beta (FRβ), recombinant, C-terminal 6xHis (human, UniProt P14207 17-230, limits assumed); experiment: as above
T3 construct: Transiently expressed in 293F cells and purified; coated on ELISA plates
T3 sequence (P14207 other isoform, or with tags, fused parts or gaps limits assumed): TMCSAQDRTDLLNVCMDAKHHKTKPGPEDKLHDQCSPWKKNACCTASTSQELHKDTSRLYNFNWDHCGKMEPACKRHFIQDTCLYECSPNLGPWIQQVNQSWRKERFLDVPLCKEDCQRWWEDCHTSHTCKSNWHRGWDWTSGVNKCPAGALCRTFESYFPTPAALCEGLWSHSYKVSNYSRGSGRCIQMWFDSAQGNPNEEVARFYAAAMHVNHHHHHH

[22] = target: T1, recombinant purified FRα (ECL assay …); experiment: ECL sandwich, FRα calibrator; capture 30G6.G6.G4.E9; binder = detection Ab
[23] = target: T1, recombinant purified FRα (ECL assay …); experiment: ECL sandwich, FRα calibrator; capture 24H8.F3; binder = detection Ab
[24] = target: T1, recombinant purified FRα (ECL assay …); experiment: ECL sandwich on FRα, signal to background; capture 19D4.B7; binder = detection Ab
[25] = target: T1, recombinant purified FRα (ECL assay …); experiment: ECL sandwich on FRα, signal to background; capture 28H12.G9; binder = detection Ab
[26] = target: T1, recombinant purified FRα (ECL assay …); experiment: ECL sandwich, FRα calibrator; capture 1C6.E12.G8; binder = detection Ab
[27] = target: T1, recombinant purified FRα (ECL assay …); experiment: ECL sandwich on FRα, signal to background; capture 1D2.G8.G10; binder = detection Ab
[28] = target: T1, recombinant purified FRα (ECL assay …); experiment: ECL sandwich on FRα, signal to background; capture 24H8.F3; binder = detection Ab

T1 sequence (P15328 25-234 limits assumed): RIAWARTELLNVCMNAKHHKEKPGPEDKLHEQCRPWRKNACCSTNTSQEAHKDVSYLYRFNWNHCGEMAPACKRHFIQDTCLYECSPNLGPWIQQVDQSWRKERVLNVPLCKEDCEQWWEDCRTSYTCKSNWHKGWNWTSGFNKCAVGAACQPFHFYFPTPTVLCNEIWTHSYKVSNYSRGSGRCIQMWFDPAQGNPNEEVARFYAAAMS

Binder | Specific signal at 500 pg/mL [1] | Average of S/B [2] | Specific signal at 500 pg/mL [3] | Average of S/B [4] | Average of S/B [5] | Average of S/B [6] | Specific signal at 500 pg/mL [7] | Specific signal at 500 pg/mL [8] | Average of S/B [9] | Specific signal at 500 pg/mL [10] | Average of S/B [11] | Average of S/B [12] | Specific signal at 500 pg/mL [13] | Specific signal at 500 pg/mL [14] | Specific signal at 500 pg/mL [15] | Specific signal at 500 pg/mL [16] | Average of S/B [17] | Specific signal at 500 pg/mL [18] | Average of S/B [19] | binding result [20] | other results
Monoclonal antibody 1A8.G11.E7 (antibody, mouse IgG1, V domains shown, Murine IgG1 kappa from hybridoma; also called ATCC PTA-123100) VH: ESGPGLVAPSQSLSITCTVSGFSLTSYGVSWVRQPPGKGLEWLGVIWGDGSTNYHSTLISRLSISKDNSKSQVFLKLNSLQTDDTATYYCAKPHPAATGAMDYWGQGTSVTVSS VL: TQTTSSLSASLGDRVTISCRASQDISNHLNWYQQKPDGTVKLLIYYTSRLHSGVPSRFSGSGSGTDYSLTISNLEQEDIATYFCQQGNTLWTFGGGTKLEIK | 1840 | 1 | 67 | 1 | 244 | 1 | 80 | 60 | 1 | 106 | 27 | 1 | 83 | 76 | 64 | 84 | 1 | 41400 | 2 | no binding | binding result [21]: no binding; Specific signal at 500 pg/mL [22]: 17900; Specific signal at 500 pg/mL [23]: 87; Average of S/B [24]: 310; Average of S/B [25]: 1; Specific signal at 500 pg/mL [26]: 75; Average of S/B [27]: 1; Average of S/B [28]: 1
Monoclonal antibody 24H8.D3 (antibody, mouse IgG1, V domains shown, Biotin-conjugated when used as capture antibody in the ECL assay; also called ATCC PTA-123090) VH: QVQLKESGPGLVAPSQSLSITCTVSGFSLTSYGVSWVRQPPGKGLEWLGVIWGDGSTNYHSTLISRLSISKDNSKSQVFLKLNSLQTDDTATYYCAKPHPAATGAMDYWGQGTSVTVSS VL: DIQMTQTTSSLSASLGDRVTISCRASQDISNHLNWYQQKPDGTIKLLIYYTSKLHSGVPSRFSGSGSGTDYSLTISNLEQEDIATYFCQQGNTLWTFGGGTKLEIK | 1930 | 1 | 71 | 1 | 273 | 1 | 81 | 64 | 1 | 110 | 38 | 1 | 97 | 69 | 52 | 69 | 1 | 40500 | 2 | no binding | binding result [21]: no binding; Specific signal at 500 pg/mL [22]: 20300; Specific signal at 500 pg/mL [23]: 88; Average of S/B [24]: 332; Average of S/B [25]: 1; Specific signal at 500 pg/mL [26]: 59; Average of S/B [27]: 1; Average of S/B [28]: 1
Monoclonal antibody 24H8.F3 (antibody, mouse IgG1, V domains shown, Murine IgG1 kappa from hybridoma; also called ATCC PTA-123097) VH: GPGLVAPSQSLSITCTVSGFSLTSYGVSWVRQPPGKGLEWLGVIWGDGSTNYHSTLISRLSISKDNSKSQVFLKLNSLQTDDTATYYCAKPHPAATGAMDYWGQGTSVTVSS VL: TTSSLSASLGDRVTISCRASQDISNHLNWYQQKPDGTIKLLIYYTSKLHSGVPSRFSGSGSGTDYSLTISNLEQEDIATYFCQQGNTLWTFGGGTKLEIK | 1870 | 2 | 139 | 1 | 501 | 1 | 72 | 61 | 2 | 242 | 27 | 2 | 85 | 70 | 64 | 158 | 1 | 33600 | 4 | no binding | binding result [21]: no binding; Specific signal at 500 pg/mL [22]: 28300; Specific signal at 500 pg/mL [23]: 104; Average of S/B [24]: 327; Average of S/B [25]: 2; Specific signal at 500 pg/mL [26]: 64; Average of S/B [27]: 1; Average of S/B [28]: 1
